Assay results reported in the supplement of paper PMC9112550, “Optimization of the antimicrobial peptide Bac7 by deep mutational scanning” (BMC Biology, 2022).

Tested on: Escherichia coli TOP10
Experiment: shrunken log2 fold change of peptide-encoding DNA abundance (4.5 h post-induction vs induction); higher = less antimicrobial activity (less host growth inhibition)
Settings: time post-induction: 4.5 h; library: site-saturation at positions 5, 18, 19, 20
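Also: peptides expressed intracellularly from a pBAD plasmid library in pooled LB shake-flask culture, induced with 0.3% L-arabinose, DNA abundance read by NGS, three biological replicates, DESeq2 with apeglm shrinkage.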

Row | Sequence | shrunken log2 fold change
1 | RRIRTRPPRLPRPRPRPSLCPRP | -0.0129
2 | RRIRARPPRLPRPRPRPINTPRP | -0.631
3 | RRIRQRPPRLPRPRPRPDRHPRP | -0.182
4 | RRIRARPPRLPRPRPRPKYSPRP | -0.39
5 | RRIRHRPPRLPRPRPRPIYTPRP | -1.35
6 | RRIRWRPPRLPRPRPRPGWAPRP | 0.845
7 | RRIRTRPPRLPRPRPRPCLDPRP | -0.405
8 | RRIRHRPPRLPRPRPRPNDTPRP | -0.933
9 | RRIRMRPPRLPRPRPRPDANPRP | 3.18
10 | RRIRNRPPRLPRPRPRPKEDPRP | 0.0361
11 | RRIRERPPRLPRPRPRPRVRPRP | 0.211
12 | RRIRMRPPRLPRPRPRPPVLPRP | -0.122
13 | RRIRGRPPRLPRPRPRPTGWPRP | 1.04
14 | RRIRCRPPRLPRPRPRPRHLPRP | -0.302
15 | RRIRQRPPRLPRPRPRPKALPRP | -0.0462
16 | RRIRPRPPRLPRPRPRPRCVPRP | 0.0965
17 | RRIRPRPPRLPRPRPRPLGLPRP | -0.124
18 | RRIRYRPPRLPRPRPRPQSDPRP | -0.251
19 | RRIRTRPPRLPRPRPRPRVHPRP | 0.0778
20 | RRIRGRPPRLPRPRPRPYQYPRP | -0.0692
21 | RRIRVRPPRLPRPRPRPSTCPRP | -0.325
22 | RRIRWRPPRLPRPRPRPVFSPRP | -0.0517
23 | RRIRYRPPRLPRPRPRPDWDPRP | -0.543
24 | RRIRTRPPRLPRPRPRPQPDPRP | -0.136
25 | RRIRIRPPRLPRPRPRPWYTPRP | -0.122

Row | Sequence | shrunken log2 fold change
26 | RRIRQRPPRLPRPRPRPKLNPRP | -0.165
27 | RRIRTRPPRLPRPRPRPTNPPRP | -0.374
28 | RRIRIRPPRLPRPRPRPVRKPRP | -0.48
29 | RRIRCRPPRLPRPRPRPNPCPRP | -0.209
30 | RRIRKRPPRLPRPRPRPESVPRP | 0.234
31 | RRIRFRPPRLPRPRPRPCEPPRP | 0.0391
32 | RRIRHRPPRLPRPRPRPVLPPRP | -0.0347
33 | RRIRCRPPRLPRPRPRPVHMPRP | 0.0385
34 | RRIRGRPPRLPRPRPRPDGCPRP | 0.792
35 | RRIRARPPRLPRPRPRPSKEPRP | 0.103
36 | RRIRKRPPRLPRPRPRPLAVPRP | 0.0855
37 | RRIRARPPRLPRPRPRPAYFPRP | 0.0133
38 | RRIRDRPPRLPRPRPRPIFRPRP | -0.202
39 | RRIRIRPPRLPRPRPRPNVQPRP | -0.284
40 | RRIRHRPPRLPRPRPRPPIMPRP | -0.285
41 | RRIRHRPPRLPRPRPRPILRPRP | -0.178
42 | RRIRIRPPRLPRPRPRPGFGPRP | 0.28
43 | RRIRYRPPRLPRPRPRPTNTPRP | -1.15
44 | RRIRQRPPRLPRPRPRPQISPRP | -0.159
45 | RRIRERPPRLPRPRPRPIAWPRP | -0.199
46 | RRIRKRPPRLPRPRPRPFIMPRP | -0.191
47 | RRIRERPPRLPRPRPRPELKPRP | 0.138
48 | RRIRQRPPRLPRPRPRPPYAPRP | -0.189
49 | RRIRARPPRLPRPRPRPDWAPRP | 0.524
50 | RRIRDRPPRLPRPRPRPECEPRP | 1.53

Row | Sequence | shrunken log2 fold change
51 | RRIRWRPPRLPRPRPRPVWRPRP | 0.488
52 | RRIRVRPPRLPRPRPRPHIKPRP | -0.389
53 | RRIRQRPPRLPRPRPRPAMCPRP | 0.171
54 | RRIRRRPPRLPRPRPRPRFDPRP | 0.121
55 | RRIRSRPPRLPRPRPRPISHPRP | -0.421
56 | RRIRNRPPRLPRPRPRPILAPRP | -0.264
57 | RRIRIRPPRLPRPRPRPGYHPRP | -0.298
58 | RRIRPRPPRLPRPRPRPCSMPRP | -0.564
59 | RRIRGRPPRLPRPRPRPEHYPRP | -0.0809
60 | RRIRPRPPRLPRPRPRPWNTPRP | -0.0902
61 | RRIRDRPPRLPRPRPRPADQPRP | 0.553
62 | RRIRKRPPRLPRPRPRPSCGPRP | 0.817
63 | RRIRARPPRLPRPRPRPFLGPRP | 0.0605
64 | RRIRTRPPRLPRPRPRPMDTPRP | 0.0257
65 | RRIRKRPPRLPRPRPRPKMWPRP | 0.363
66 | RRIRDRPPRLPRPRPRPVAHPRP | -0.0445
67 | RRIRYRPPRLPRPRPRPFAHPRP | -0.00804
68 | RRIRIRPPRLPRPRPRPEFIPRP | -0.00702
69 | RRIRGRPPRLPRPRPRPRKHPRP | 0.632
70 | RRIRHRPPRLPRPRPRPTTFPRP | 0.0797
71 | RRIRPRPPRLPRPRPRPNVVPRP | -0.0229
72 | RRIRMRPPRLPRPRPRPPLCPRP | 1.72
73 | RRIRIRPPRLPRPRPRPEEQPRP | 0.0175
74 | RRIRWRPPRLPRPRPRPQKGPRP | -0.214
75 | RRIRNRPPRLPRPRPRPVFIPRP | -0.459

Row | Sequence | shrunken log2 fold change
76 | RRIRNRPPRLPRPRPRPQTQPRP | 0.153
77 | RRIRVRPPRLPRPRPRPMYDPRP | -0.0887
78 | RRIRMRPPRLPRPRPRPVMYPRP | -0.0366
79 | RRIRSRPPRLPRPRPRPLWAPRP | 0.206
80 | RRIRKRPPRLPRPRPRPYWGPRP | -0.000921
81 | RRIRKRPPRLPRPRPRPFLYPRP | -0.436
82 | RRIRYRPPRLPRPRPRPIWPPRP | -0.00922
83 | RRIRVRPPRLPRPRPRPYWNPRP | -0.574
84 | RRIRMRPPRLPRPRPRPFHFPRP | -0.313
85 | RRIRKRPPRLPRPRPRPYEFPRP | 0.101
86 | RRIRARPPRLPRPRPRPVSNPRP | 0.296
87 | RRIRTRPPRLPRPRPRPMVPPRP | -0.0651
88 | RRIRNRPPRLPRPRPRPWHQPRP | -0.094
89 | RRIRDRPPRLPRPRPRPCRMPRP | 0.0112
90 | RRIRSRPPRLPRPRPRPGCWPRP | 0.593
91 | RRIRMRPPRLPRPRPRPKGLPRP | -0.0628
92 | RRIRIRPPRLPRPRPRPEQLPRP | -0.148
93 | RRIRIRPPRLPRPRPRPEFMPRP | -0.25
94 | RRIRMRPPRLPRPRPRPRFIPRP | -0.154
95 | RRIRRRPPRLPRPRPRPRVWPRP | 0.686
96 | RRIRQRPPRLPRPRPRPFHYPRP | -0.996
97 | RRIRLRPPRLPRPRPRPITRPRP | 0.177
98 | RRIRHRPPRLPRPRPRPPFEPRP | 0.161
99 | RRIRARPPRLPRPRPRPCVGPRP | 2.43
100 | RRIRCRPPRLPRPRPRPLVAPRP | 0.033

Row | Sequence | shrunken log2 fold change
101 | RRIRNRPPRLPRPRPRPWNSPRP | -0.281
102 | RRIRGRPPRLPRPRPRPYAIPRP | -0.0622
103 | RRIRQRPPRLPRPRPRPWPYPRP | 0.0155
104 | RRIRRRPPRLPRPRPRPYDIPRP | -0.249
105 | RRIRPRPPRLPRPRPRPPVRPRP | 0.353
106 | RRIRMRPPRLPRPRPRPRDYPRP | -0.164
107 | RRIRQRPPRLPRPRPRPFIDPRP | -0.0223
108 | RRIRKRPPRLPRPRPRPVRDPRP | 0.48
109 | RRIRLRPPRLPRPRPRPQSPPRP | -0.0515
110 | RRIRFRPPRLPRPRPRPKLCPRP | -0.14
111 | RRIRHRPPRLPRPRPRPKAHPRP | -0.145
112 | RRIRHRPPRLPRPRPRPRMTPRP | 0.19
113 | RRIRPRPPRLPRPRPRPMACPRP | -0.161
114 | RRIRDRPPRLPRPRPRPVAAPRP | 0.833
115 | RRIRIRPPRLPRPRPRPPARPRP | 0.393
116 | RRIRFRPPRLPRPRPRPVMRPRP | 0.518
117 | RRIRARPPRLPRPRPRPRSFPRP | 0.202
118 | RRIRQRPPRLPRPRPRPRSQPRP | 0.0421
119 | RRIRPRPPRLPRPRPRPGSNPRP | -0.082
120 | RRIRCRPPRLPRPRPRPRVHPRP | -0.152
121 | RRIRQRPPRLPRPRPRPFWKPRP | -0.0968
122 | RRIRKRPPRLPRPRPRPFHFPRP | -0.0346
123 | RRIRVRPPRLPRPRPRPYDGPRP | -0.00822
124 | RRIRFRPPRLPRPRPRPAKWPRP | 0.0975
125 | RRIRGRPPRLPRPRPRPRNIPRP | 0.0648

Row | Sequence | shrunken log2 fold change
126 | RRIRVRPPRLPRPRPRPLNTPRP | -0.224
127 | RRIRRRPPRLPRPRPRPHMIPRP | -0.13
128 | RRIRWRPPRLPRPRPRPFGVPRP | 0.227
129 | RRIRERPPRLPRPRPRPYPRPRP | -0.00133
130 | RRIRERPPRLPRPRPRPRHLPRP | -0.427
131 | RRIRSRPPRLPRPRPRPMHEPRP | -0.271
132 | RRIRQRPPRLPRPRPRPPVTPRP | 0.199
133 | RRIRKRPPRLPRPRPRPNMLPRP | -0.0107
134 | RRIRYRPPRLPRPRPRPAAMPRP | 1.99
135 | RRIRDRPPRLPRPRPRPAYCPRP | 0.00854
136 | RRIRWRPPRLPRPRPRPGESPRP | 0.159
137 | RRIRERPPRLPRPRPRPWDCPRP | -0.0136
138 | RRIRFRPPRLPRPRPRPYEDPRP | -0.951
139 | RRIRMRPPRLPRPRPRPIMTPRP | -0.104
140 | RRIRCRPPRLPRPRPRPVHPPRP | -0.375
141 | RRIRKRPPRLPRPRPRPLATPRP | 0.527
142 | RRIRHRPPRLPRPRPRPDCIPRP | -0.0444
143 | RRIRPRPPRLPRPRPRPRDSPRP | 0.334
144 | RRIRFRPPRLPRPRPRPFMPPRP | -0.469
145 | RRIRCRPPRLPRPRPRPCWVPRP | -0.4
146 | RRIRYRPPRLPRPRPRPFFHPRP | -1.2
147 | RRIRYRPPRLPRPRPRPNRYPRP | -0.499
148 | RRIRWRPPRLPRPRPRPGTRPRP | 0.377
149 | RRIRIRPPRLPRPRPRPGMMPRP | -0.453
150 | RRIRPRPPRLPRPRPRPAWEPRP | 0.216
